Results as given in PMC2685089.

Key:
Experiment in all cases: EMSA
[1] = molecular target: T1, Up1 (UniProt P09651-2 2-196)
[2] = molecular target: hnRNP A1 (A1) (UniProt P09651-2 2-320)
[3] = molecular target: T1, Up1; remark: listed apart in the source

With AGGGCGGTGTGGGAAGAGGGAAGAGGGGGAGG (structured_DNA) [32R] the Kd [1] was ~50 nM.

B1: dsNHE (32R:32Y) (dsDNA)
DNA 1: AGGGCGGTGTGGGAAGAGGGAAGAGGGGGAGG
DNA 2: CCTCCCCCTCTTCCCTCTTCCCACACCGCCCT
B1: no binding [2]; no binding [3].

AGGGAGGGCGCTGGGAGGAGGG (structured_DNA) [CKIT]: binds [3].
